# Measured values: patent US5612040
# Molecular target: baby hamster kidney (BHK) cells
# Test: cell binding to BHK cells at a constant virus/cell ratio (1000:1)
substance,measurement,value
"foot-and-mouth disease virus (FMDV) type A12, wild-type virus (VRGDF at amino acids 143-147 of VP1)","Cell Binding, %",65%
